The record followed here is paper PMC6306009, “Combined use of cutinase and high-resolution mass-spectrometry to query the molecular architecture of cutin” (Plant Methods, 2018).

The target in data set [1] is T1, F. solani cutinase (Fusarium vanettenii, UniProt P00590).
T1 construct: gene CUT1; codon-optimised ORF, His-tagged, pET30f, E. coli BL21(DE3), sarkosyl extraction, Ni-NTA purified; 24-30 kDa on SDS-PAGE
As to the kind of experiment: p-nitrophenol release, absorbance at […] nm. To be noted: 20 mM Tris-HCl pH 8, 10 mM NaCl, 10% acetonitrile (standard assay); temperature not given. In kind it is biochemical.

For data set [2], the system named is CCCC(=O)Oc1ccc([N+](=O)[O-])cc1. As to the kind of experiment: purified protein. To be noted: 20 mM Tris-HCl pH 8, 10 mM NaCl, 10% acetonitrile (standard assay), temperature not given.

T1 sequence (P00590 32-230): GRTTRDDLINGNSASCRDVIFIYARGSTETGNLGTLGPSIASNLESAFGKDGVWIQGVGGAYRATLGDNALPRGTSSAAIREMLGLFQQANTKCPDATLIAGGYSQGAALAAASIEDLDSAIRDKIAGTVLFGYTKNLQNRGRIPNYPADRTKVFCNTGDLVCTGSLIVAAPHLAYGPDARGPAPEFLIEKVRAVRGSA

The Km is the substrate concentration at which the rate is half of its maximum. `CCCC(=O)Oc1ccc([N+](=O)[O-])cc1` [p-nitrophenyl butyrate]: in data set [1], the Km worked out at 1260 ± 60 µM.

By kcat is commonly meant the number of substrate molecules converted per active site and unit of time at saturation. For “A. brassicicola cutinase (Alternaria brassicicola)”, in data set [2], the Km is 870 ± 50 µM and the kcat was 12 ± 0.80 s⁻¹.
